Test: yeast display, Sf9 membrane polyspecificity reagent, FACS + sequencing; frameworks hold sequencing errors
Summary of the method: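 Using colony PCR, genes from sorted yeast display clones were amplified, then sequenced on MiSeq at 2 × 250 and filtered by CDR length. The clones had been stained with 10% biotinylated, detergent-solubilized Sf9 membrane reagent for 1 hour at 4 °C and sorted by FACS into low and high (top ~1%) gates on anti-HA and streptavidin fluorescence. Polyreactivity labels come from the gate of origin.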

| Sequence | polyreactivity (PSR sort gate) |
| --- | --- |
| QVQLQESGGCLVQAGGSLRLSCAASGTNLYSLGMGWSRQAPGKRREFVASITWGTTTNYAESENGRFTISRDNAKKTVYPQRNSLKPEDTAVYYCAAPPFGDSSYHYWGQATQVTVSS | low polyreactivity |
| QVQLVESVGGLVQAGGSLRLSCAASGRIFHRYTMGWYRQAPGKEREFVAAITTRAGSTYYADSVKGRFTISRDNAKNTVYLQMNSLKPEDTAVYYCNIRRHSLYGGTTTRYDYWGQGTQVTVSS | high polyreactivity |
| QVQLVESGGGLVQAGGSLRLSCAASGGTFWAYTMGWYRQAPGKERELVATISFGTGNTYYADSVKGRFTISRDNAKNTVYLQMNSLKPEDTAVYYCAAQWPELTRSYVTVEVEYWGQGTQVTVSS | low polyreactivity |
| QVQLVESGGGLVQAGGSLRLSCAASGFIFRNYVMGWKRPAPGKERELVADITFSGGGTYYADSVKGRFTISRDNAKNTVYLLMNSLIPEDTAVYYCAVYWNWQYDYCGQGTQVTVSS | high polyreactivity |
| QVQLVESGGGLVQAGGSLRLSCAASGFTFLKYAMGWYIQAPGKERELVARITSGGRTYYADSVKGRFTISRDNAKNTVYLQMNSLKPEDTAVYYCNAVKSYASLYAGFYYWGQGTQVTVSS | high polyreactivity |
| QVQLVESGGGLVQAGGSLRLSCAASGSTFVYYTMGWYRQAPGKERELVATISSRGGSTYYADSVKGRFTISRDNAKNTVYLQMNSLKPEDTAVYYCAKRGPFYGNYDYWGQGTQVTVSS | high polyreactivity |
| QVQLVESGGGLVQAGGSLRLSCAASGRIGRYAMGWYRQAPGKESELVAVITSGDSTYYADSVKGRFTITRDNAKNTVYFQMNSLKPEDTAVYYCAADSYRRWGILFTGNEYDSWGQGTQVTVSS | low polyreactivity |
| QVQLVESGGGLVQAGGILRLSAASGSTLAGNTMGWYRQAPGKERELVAAINDSGGSTYYADSVKGRFTISRDNAKNTVYLQMNSLKPEDTAVYYCNADGSAYIEDGYDYWGQGTQVTVSS | low polyreactivity |
| QVQLVESGGGLVQAGGSLRLSCAPSGSTFRGNAMGWYRQAPGKERELVAAITRRGGSTYYADSVKGRFTISRDNAKNTVYLQMNSLKPEDTAVYYCAKVGRETEYAYWGQGTQVTVSS | high polyreactivity |
| QVQLVESGGGLVQAGGSLRLSCAASGRTFAPYTMGWYRQAPGKERELVAVITRRDGRTYYADSVKGRFTISRDNAKNTVYLQMNSLKPEDTAVYYCCFFPADWYRPVRDLRTDSDYWGQGTQVTVSS | low polyreactivity |
| QVQLVESGGGLLQAGGSLRLSCAASGSTFPSYAMGWYRQAPGKERELVAAINSGGGTNYADSVKGRFTISRDNAKNNVYLQMNSLKPEDTAVYYCAKSRYDYTKTDGGYWGQGTQVTVSS | low polyreactivity |
| QVQLVESGGGLVQAGGSLRLSCAASGSTFGPNPMGWYRQAPGKERELVAAISRAGRTYYADSVKGRFTISRDNAKNTVYLQMNSLKPEDTAVYYCNAGRSYHWRAGGEYDYWGQGTQVTVSS | low polyreactivity |
| QVQLVESAGGLVQAAGSLRLSCDASGFTTYYNAMGWYRQAPGKERELVAAISSSGGSTNYADSVKGRFTISRDNAKNTVYLQMNSLKPEDTAVYYCAARLYGWYYGGYTRYDYWGQGTQVTVSS | high polyreactivity |
| QVQLGESGGGLVQAGGSLRLSCAASGSTFERYSMGWYRQAPGKERELDAAINWSGGGTYYADSVKGRFTISRDNAKNTVYLQMNSLKPEDTAVYYCAADSGNVVFSLWWYEYYYWGQGTQVTVSS | low polyreactivity |
| QVQLVESGGGLVQAGGSLRFSCAASGSTFFSYAMGWYRQAPGKERELVATIRGSAGRTYYADSVKGRFTISRDHANYTVYLQMNSLKPEDTAVYYCARRYWPGSAYWIYDYWGQGTQVTVSS | high polyreactivity |
| QVQLVESGGGLVQAGGSLRLSCAASGFTFHQYTMGWYRQAPGKERELVAAISRSGYTNYADSVKGRFTISRDNAKNTVYLQMNSLKPEDTAVYYCNARSTRSRTYQSYDYWGQGTQVTVSS | high polyreactivity |
| QVQLVESGGGLVQAGGSLRLSCAASGRIFSYNAMGWYRQAPGKERELDAAISWSTGSTFYADSVKGRFTISRDNAKNTVYLQMNSLKPEDTAVYYCAREYYYRRGFFLRGYWGQGTQVTVSS | high polyreactivity |
| QVQLVESGGGLVQAGGSLRLSCAASGSTFNDNAMGWYRQAPGKERELVAGISYSGGSTYYADSVKGRFTISRDNAKNTVYLQMNSLKPEDTAVYYCNADVTGLSQFGYWGQGTQVTVSS | low polyreactivity |
| QVQLVESGGGLVQAGGSLRLSCAASGYTFGSNVMGWYRQAPGKERELVAAITFSGGSTYYADSVKRRFTISRDNAKNTVFLLMIRLKPEDTAVYYCAVRYVRYYAWYYYWGQGTQVTVSS | high polyreactivity |
| QVQLVESGGGLVQAGGSLRLSCAASGFTFTPYAMGLYSQAPGKERELVAAITWRGGTYYADSVKGRFTISRDNAKKSVYLQMNSLKPEDTAVYYCAARVWRLYPSTYDYWGQGTQVTVSS | high polyreactivity |
| QVQLVESGGGLVQAGGSLRLSCAASGSIFSFYTMGWYRQAPGKERELVAAINWSGSRTYYADSVKGRFTISRDNAKKTVYLQMNSLNPEDTAVYYCAARKYYSRAYDYWGQGTQVTVSS | high polyreactivity |
| QVQLVESGGGLVQAGGSLRLSCAASGFILTLYAMGWYRQAPGKERELVASISRRGGSTYYADSVKGRFTISRDNAKNTVYLQMNSLKPEDTAVYYCNAQGYRRGYDYWGQGTQVTVSS | high polyreactivity |

| Sequence | polyreactivity (PSR sort gate) |
| --- | --- |
| QVQLVESGGGLVQAGGSLRLSCAASGFIFYDYDMGWYRQAPGKERELVAAITYSGGSTYYADSVKGRFTISRDNAKNTVYLQMNSLKPEDTAVYYCAAVKSRYAEAVDYYYWGQGTQVTVSS | low polyreactivity |
| QVHLVESGGGLVQAGGSLRLICAASGSIFRWNAMGWYRQAPGKEREFVATISSGRNTKYADSVKGRFTISRDNAKNTVYLQMTSLKPQDTAVNDCAAAVKRALDYWGQGTQVTVSS | high polyreactivity |
| QVQLVESGGGIVQAGGSLSLSCRACGRSFAFYSMGWYRQEPGKERELVAAITRTGSTSYADSVNGRFTISRDNAKNTVYLQMNSLKPEDTAVYYCATVGYPYTLWHQMVYWGQGTQVTVSS | low polyreactivity |
| QVQIVESGGGLVQAGGSLRLSCAASGSIFTYNAMGWYRQAPGKERELVAAISYSGVRTYYADSVKGRFTISRDNAKNTVYLQMNSLKPEDTAVYYCNTRYPYSVLKYGYWGQGTQVTVSS | high polyreactivity |
| QVQLVESGGGLVQAGGSLRLSCAASGLTFSVYAMGWSRQAPGKERELVASITRSGGSTYYADSVKGRFTISRDNAKNTVYLQMNSLKPEDTADYYCNADKYYGFDYWGQGTQVTVSS | high polyreactivity |
| QVQLVESGGGLVQAGGSLRLSCAASGSTFLINAMGWYRQAPGKEREFVAAITSSGGTTYYADSVKGRFTISRDNAKNTVYLQMNSLKPEDTAVYYCAAVSRSRREKKFDYWGQGTQVTVSS | low polyreactivity |
| QDQLVDSGGGLLQAGGSLRLSCAASGSMLSTYAMGWYRQATGKERELVASISSIAGSTYYADSVKGRFTISRDNAMNTVYLQLNILKPEDNAVYYCNKVYGGGSYDYWGQGTQVTVSS | low polyreactivity |
| QVQLVESGGGLVQAGGSLRLSCAASGSTFTRYAMGWYRQAPGKERELVAAISGGGSTNYADSVKGRFTISRDNSKNTVYLQMNSLKPEDTAVYYCAARVRTTGYSQMYYWGQGTQVTVSS | low polyreactivity |
| QDQLVESGGGLVQAGGRLRLSCAASGSTVGVYAMGWYRQAPGKERELVAAISYTGGSSYYADSVKGRFTISRDNAKNTVYLQMNSLKPEDTAVYYCAVEVGYTDSPYSYDYWGQGTQVTVSS | low polyreactivity |
| QVQLVESGGGLVQAGGSLRLSCAASGRIFFWYAMGWYRQAPGKERELVAAISKSGGSTYYADSVKGRFTISRDNAKNTVYLQMNSLKPEDTAVYYCARVSKRTWSGYYYWGQGTQVTVSS | high polyreactivity |
| QDQLVESGGGLVQAGGSLRLSCAASGSNFSWNDMGWYRQAPGKERELVAAITSDDTSTYYADSVKGRFTISRDNAKNSVYLQMNSLKPEDTAVYYCAADYGNPFDYWGQGTQVTVSS | low polyreactivity |
| QVQLVESGGGLVQAGGSLRLSCAASGSTFYPNAMGWSRQAPGKERELVAAISRGTRTKYADSVKGRFTISRDNAKNTVYLQMKSLKPEDTAVYYCAADTGTGLDWGQGTQVTVSS | high polyreactivity |
| QVQLVESGGGLVQAGGSLRLSCAASGFILKYYAMGWYRQAPGKERELVAAISVRGGSTYYADSVKGRFTISRDNAKNTVYLQMNSLKPEDTAVYYCAARHRYGGAFVDYDYWGQGTQVTVSS | high polyreactivity |
| QVQLVESGGGLVQAGGSLRLSCAASVRTSRLYAMGWYRQAPGKERELDASITRGGSTYADSVKGRFTISRDNAKNTVYLQMNSLKPEDTAVDYCNAELYVPPYDDDYWGQGTQVTVSS | high polyreactivity |
| QVQLVESGGGLVQAGGSLRLICAASGSTFESYAMGWYRQAPGKERELVAAISRRGGRTYYADSVKGRFTISRDNAMNTVSLQMYSLKPEDTAVYYCATDSSYYGSDDYWGQGTQVTVSS | high polyreactivity |
| QVQLVESGGGLVQAGGRLRLSCPASGLIFSYYAMGWYRQEPGKERELVAAISRGGSTNYADSVKGRFTISRDNAKNTVYLQMNSLKPEDTAVYYCAARFVLRRDYGYWGQGTQVTVSS | high polyreactivity |
| QVQLVESGGGLVQAGGSLRLSCAASGRTLPKYVLGWYRQSPGKERELVAAISSSGDSTYYADSVNGRFTISRDNAKNTVYLQMNILKPEDTAVYYCDKYDRNTYGYWGQGTQVTVST | low polyreactivity |
| QVQLVDSGGGLVQAGGSLRLSWAASGITFYTYTMGWYRQAPGKERELVAAISRRGGGTYYADSVKGRFTISRDNGKNTVYFQMNILKTEVTAVYYCAKDWYGRYYYWGQGTEVTVSS | high polyreactivity |
| QVQLVESGGGLVQAGGSLRLSCAASGRIFVVYAMGWYRQAPGKERELVAAITYGGGSTHYADSVKGRFTISRDNAKNTVYLQMNSLKPVDTAVYYCAADVYLVKYDYWGQGTQVTVSS | low polyreactivity |
| QVQLVESGGGLVQAGGSLRLSCAASGSTFATNTMGWYRQAPGKERELVAAITSGGSTYYADSVKGRFTISRDNAKNTVYLQMNSLKPEDTAVYYCAVRGVYYYHRAFDYWGQGTQVTVSS | high polyreactivity |
| QVQLVESGGGLVQAGGSLRLSCAASGYIFNGNAMGWYRQAPGKERELVATITRRGGSTYYADSVKGRFTISRDNAKNTVYLQMNSLKPEDTAVYYCNKRDYSGDYYGPLDYWGQGTQVTVSS | high polyreactivity |

— the nanobody polyreactivity screen of Harvey et al. (2022)
